Assay results as given in the supplement of paper PMC10724198.
± gives the standard deviation of the averaged measurements.

What was measured:
[1] = test system: Saccharomyces cerevisiae; experiment: protein stability index of tFT-peptide fusion (C-terminal peptide) (PSI (0-1 scale)); higher = more stable (slower turnover); conditions: genetic background: wild type; temperature: 30 C
[2] = test system: Saccharomyces cerevisiae; experiment: as above
Description: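 MPS profiling in S. cerevisiae of the tFT-X12 degron library: putative degron peptides plus stable controls, 12 aa, fused to the C-terminus of a sfGFP-mCherry timer. Cells are FACS-sorted into 8 mCherry/sfGFP bins and deep-sequenced. PSI runs from 0 (unstable) to 1 (stable). Backgrounds are wild type, das1Δ and doa10Δ at 30 °C, and wild type, das1Δ, cdc34-1 and cdc53-1 at 37 °C; 2-3 technical replicates each.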

[3] = genetic background: cdc34-1, temperature: 37 C
[4] = genetic background: cdc53-1, temperature: 37 C
[5] = genetic background: das1 deletion, temperature: 30 C
[6] = genetic background: das1 deletion, temperature: 37 C
[7] = genetic background: doa10 deletion, temperature: 30 C
[8] = genetic background: wild type, temperature: 30 C
[9] = genetic background: wild type, temperature: 37 C
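Further: PSI is a weighted mean of sequencing reads over stability bins, variants kept only with over 10 reads, mCherry proximal and sfGFP distal, peptide attached via GGGS linker.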

| Sequence | protein stability index [1] | protein stability index [2, 3] | protein stability index [2, 4] | protein stability index [2, 5] | protein stability index [2, 6] | protein stability index [2, 7] | protein stability index [2, 8] | protein stability index [2, 9] |
| --- | --- | --- | --- | --- | --- | --- | --- | --- |
| GFSFFFIFWFFF | 0.348 ± 0.022 | 0.394 ± 0.014 | 0.422 ± 0.011 | 0.35 ± 0.018 | 0.503 ± 0.034 | 0.378 ± 0.034 | 0.339 ± 0.027 | 0.436 ± 0.033 |
| DFWCIIVIFLFR | – | 0.221 ± 0.004 | 0.348 ± 0.027 | 0.248 ± 0.015 | 0.393 ± 0.015 | 0.225 ± 0.0077 | 0.251 ± 0.031 | 0.34 ± 0.0045 |
| LWRFFFVAFVGI | 0.421 ± 0.025 | 0.446 ± 0.0079 | 0.509 ± 0.024 | 0.377 ± 0.034 | 0.55 ± 0.0084 | 0.359 ± 0.0076 | 0.357 ± 0.021 | 0.515 ± 0.018 |
| VRELGVGGWRRQ | 0.283 ± 0.01 | 0.58 ± 0.08 | 0.7 ± 0.0064 | 0.619 ± 0.016 | 0.752 ± 0.004 | 0.11 ± 0.012 | 0.129 ± 0.012 | 0.405 ± 0.0063 |
| FILCGFSVVLIG | 0.255 ± 0.12 | 0.153 ± 0.033 | 0.245 ± 0.0032 | 0.191 ± 0.036 | 0.395 ± 0.016 | 0.162 ± 0.019 | 0.184 ± 0.048 | 0.372 ± 0.014 |
| LLLRSSRLRVLS | 0.176 ± 0.065 | 0.543 ± 0.064 | 0.619 ± 0.03 | 0.607 ± 0.013 | 0.6521 ± 0.005 | 0.0852 ± 0.0037 | 0.0918 ± 0.02 | 0.149 ± 0.021 |
| TLLAFLIYLCFL | 0.416 ± 0.012 | 0.496 ± 0.023 | 0.515 ± 0.061 | 0.403 ± 0.023 | 0.546 ± 0.0095 | 0.402 ± 0.017 | 0.365 ± 0.028 | 0.499 ± 0.043 |
| VVVLFGRLVVIC | 0.431 ± 0.048 | 0.48 ± 0.01 | 0.611 ± 0.019 | 0.448 ± 0.033 | 0.598 ± 0.017 | 0.327 ± 0.0075 | 0.332 ± 0.029 | 0.5402 ± 0.003 |
| GVLTVVLQVGVV | 0.393 ± 0.0095 | 0.299 ± 0.033 | 0.378 ± 0.053 | 0.309 ± 0.038 | 0.428 ± 0.019 | 0.282 ± 0.011 | 0.304 ± 0.02 | 0.407 ± 0.0063 |
| RLSTTTTKQFIH | 0.4902 ± 0.0011 | 0.668 ± 0.016 | 0.74 ± 0.013 | 0.661 ± 0.045 | 0.753 ± 0.021 | 0.302 ± 0.0053 | 0.348 ± 0.022 | 0.58 ± 0.011 |
| ETCFSFVCSVQC | 0.398 ± 0.0044 | 0.328 ± 0.013 | 0.325 ± 0.025 | 0.284 ± 0.036 | 0.4019 ± 0.0023 | 0.221 ± 0.012 | 0.281 ± 0.02 | 0.385 ± 0.0093 |
| VFFRCVCCLSVF | 0.307 ± 0.026 | 0.388 ± 0.029 | 0.408 ± 0.042 | 0.327 ± 0.024 | 0.412 ± 0.014 | 0.2533 ± 0.00085 | 0.264 ± 0.015 | 0.352 ± 0.007 |
| WQGWFLSLCIWV | 0.348 ± 0.014 | 0.2872 ± 0.0019 | 0.341 ± 0.0047 | 0.3 ± 0.031 | 0.404 ± 0.0047 | 0.317 ± 0.0065 | 0.296 ± 0.024 | 0.392 ± 0.025 |
| FLVFRPPALFLR | 0.218 ± 0.18 | 0.0932 ± 0.018 | 0.0985 ± 0.0088 | 0.198 ± 0.024 | 0.268 ± 0.013 | 0.611 ± 0.01 | 0.22 ± 0.017 | 0.219 ± 0.0054 |
| PPTHDSPVWSPS | 0.743 ± 0.0086 | 0.677 ± 0.06 | 0.721 ± 0.023 | 0.672 ± 0.029 | 0.7438 ± 0.0025 | 0.667 ± 0.017 | 0.687 ± 0.02 | 0.7217 ± 0.0029 |
| WRVRFRLLAGFC | 0.173 ± 0.018 | 0.347 ± 0.038 | 0.4126 ± 0.0035 | 0.296 ± 0.021 | 0.421 ± 0.0046 | 0.073 ± 0.016 | 0.107 ± 0.027 | 0.206 ± 0.016 |
| VGFIVCFFFSFG | 0.432 ± 0.02 | 0.334 ± 0.049 | 0.456 ± 0.0062 | 0.325 ± 0.033 | 0.459 ± 0.017 | 0.3 ± 0.031 | 0.313 ± 0.026 | 0.453 ± 0.0084 |
| SSFDFVVSLCIY | 0.454 ± 0.041 | 0.501 ± 0.044 | 0.526 ± 0.052 | 0.39 ± 0.021 | 0.49 ± 0.015 | 0.347 ± 0.019 | 0.36 ± 0.013 | 0.476 ± 0.014 |
